Test results reported in patent US20060287508A1 (Chugai, published 2006).

Assays:
hTF (Thromborel S) [1] = target: T1, hTF (Thromborel S) (human, UniProt P13726 33-295); experiment: cell-based or functional assay
shTF [2] = target: T2, shTF (human, UniProt P13726 33-251, limits assumed); experiment: competitive ELISA on coated shTF against biotinylated anti-human TF antibody; anion exchange subpeak
T2 construct: also called human tissue factor
Description: (§1) shTF was adjusted to 20 nM with coating buffer (hereafter, indicated as CB), dispensed at 100 μl/well into a 96-well plate and incubated at 4° C. overnight. Each well was washed three times with rinse buffer (hereafter, indicated as RB); 200 μl dilution buffer (hereafter, indicated as DB) was added to each well. The plate was left standing at room temperature for 2 hours for blocking. […] The plate was washed three times with RB. After 100 μl ALP-streptavidin diluted 5,000-fold with DB was dispensed to each well, the plate was left standing for 1 hour at room temperature. Each well was washed 5 times with RB, and SIGMA104 adjusted with substrate buffer (hereafter, indicated as SB) to 1 mg/ml was dispensed to each well. Plates were left standing for 30 min at room temperature for color development and measured with a microplate reader at a wavelength of 405 nm and a control wavelength of 655 nm.
This was taken as the binding activity.

hTF (Thromborel S) [3] = target: T1, hTF (Thromborel S); experiment: cell-based or functional assay; remark: listed apart in the source
shTF [4] = target: T2, shTF; experiment: TF binding activity after 4 weeks at 40 C, pH 7.5, against own initial value (FIG. 13B)
shTF [5] = target: T2, shTF; experiment: competitive ELISA on coated shTF against biotinylated anti-human TF antibody; anion exchange main peak
Description: as §1
This was taken as the binding activity.

T1 sequence (P13726 33-295 limits assumed): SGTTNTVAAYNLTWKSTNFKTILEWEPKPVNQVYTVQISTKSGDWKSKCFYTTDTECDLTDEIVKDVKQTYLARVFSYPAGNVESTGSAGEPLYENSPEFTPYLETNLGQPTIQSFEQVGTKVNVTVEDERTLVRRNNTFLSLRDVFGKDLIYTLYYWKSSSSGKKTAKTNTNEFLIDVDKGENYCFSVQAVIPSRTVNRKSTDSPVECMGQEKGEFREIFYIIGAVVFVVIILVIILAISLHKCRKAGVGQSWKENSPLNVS
T2 sequence (P13726 33-251 limits assumed): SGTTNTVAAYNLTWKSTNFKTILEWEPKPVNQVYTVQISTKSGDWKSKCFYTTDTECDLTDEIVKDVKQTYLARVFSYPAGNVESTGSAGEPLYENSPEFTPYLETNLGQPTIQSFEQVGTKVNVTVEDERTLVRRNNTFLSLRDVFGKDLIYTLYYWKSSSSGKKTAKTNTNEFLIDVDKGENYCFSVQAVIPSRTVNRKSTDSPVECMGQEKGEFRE

B1: anti-human TF antibody N28D mutant (antibody, human IgG4 S228P, kappa, V domains shown)
VH: QVQLLESGAVLARPGTSVKISCKASGFDIKDYYMHWVKQRPGQGLEWIGGNDPANGHSMYDPKFQGRVTITADTSTSTVFMELSSLRSEDTAVYYCARDSGYAMDYWGQGTLVTVSS
VL: DIQMTQSPSSLSASVGDRVTITCKASQDIKSFLSWYQQKPEKAPKSLIYYATSLADGVPSRFSGSGSGTDYTLTISSLQPEDFATYYCLQHGESPYTFGGGTKVEIKR
hTF (Thromborel S) [1]
  Calculated concentration (ng/ml) at 250 ng/ml added: 253 ng/mL

B2: anti-human TF antibody described in WO 99/51743 (humanized heavy chain version i, humanized light chain version b2) (antibody, human IgG4 S228P, kappa, V domains shown)
VH: QVQLLESGAVLARPGTSVKISCKASGFNIKDYYMHWVKQRPGQGLEWIGGNDPANGHSMYDPKFQGRVTITADTSTSTVFMELSSLRSEDTAVYYCARDSGYAMDYWGQGTLVTVSS
VL: DIQMTQSPSSLSASVGDRVTITCKASQDIKSFLSWYQQKPEKAPKSLIYYATSLADGVPSRFSGSGSGTDYTLTISSLQPEDFATYYCLQHGESPYTFGGGTKVEIKR
notes: Expressed as human IgG from vector pN5KG4P-AHi-ALb2; also called original anti-human TF antibody; Original
shTF [2]
  Binding Activity, Peak 2 (% of standard antibody): 70.6%
hTF (Thromborel S) [3]
  TF neutralizing activity (Equation 2, relative to standard antibody): 66%
  TF neutralizing activity after accelerated testing at 40 C for 4 weeks, relative to the initial value: ~40%
shTF [4]
  TF binding activity after 4 weeks of accelerated testing (% of its activity before): ~60%
hTF (Thromborel S) [1]
  Calculated concentration (ng/ml) at 250 ng/ml added: 248 ng/mL
  Neutralizing activity ratio (%): 99.1%
shTF [5]
  Binding Activity, Peak 1 (% of standard antibody): 100%

B3: anti-human TF antibody N55D mutant (antibody, human IgG4 S228P, kappa, V domains shown)
VH: QVQLLESGAVLARPGTSVKISCKASGFNIKDYYMHWVKQRPGQGLEWIGGNDPADGHSMYDPKFQGRVTITADTSTSTVFMELSSLRSEDTAVYYCARDSGYAMDYWGQGTLVTVSS
VL: DIQMTQSPSSLSASVGDRVTITCKASQDIKSFLSWYQQKPEKAPKSLIYYATSLADGVPSRFSGSGSGTDYTLTISSLQPEDFATYYCLQHGESPYTFGGGTKVEIKR
hTF (Thromborel S) [1]
  Calculated concentration (ng/ml) at 250 ng/ml added: 49.8 ng/mL

B4: anti-human TF antibody N51D mutant (antibody, human IgG4 S228P, kappa, V domains shown)
VH: QVQLLESGAVLARPGTSVKISCKASGFNIKDYYMHWVKQRPGQGLEWIGGDDPANGHSMYDPKFQGRVTITADTSTSTVFMELSSLRSEDTAVYYCARDSGYAMDYWGQGTLVTVSS
VL: DIQMTQSPSSLSASVGDRVTITCKASQDIKSFLSWYQQKPEKAPKSLIYYATSLADGVPSRFSGSGSGTDYTLTISSLQPEDFATYYCLQHGESPYTFGGGTKVEIKR
hTF (Thromborel S) [1]
  Calculated concentration (ng/ml) at 250 ng/ml added: 164 ng/mL

B5: anti-human TF antibody N51D/N55D double mutant (antibody, human IgG4 S228P, kappa, V domains shown)
VH: QVQLLESGAVLARPGTSVKISCKASGFNIKDYYMHWVKQRPGQGLEWIGGDDPADGHSMYDPKFQGRVTITADTSTSTVFMELSSLRSEDTAVYYCARDSGYAMDYWGQGTLVTVSS
VL: DIQMTQSPSSLSASVGDRVTITCKASQDIKSFLSWYQQKPEKAPKSLIYYATSLADGVPSRFSGSGSGTDYTLTISSLQPEDFATYYCLQHGESPYTFGGGTKVEIKR
hTF (Thromborel S) [1]
  Calculated concentration (ng/ml) at 250 ng/ml added: 31.3 ng/mL
